Measurements published in patent US20250237641A1 (priority 2021, published 2025).

B1: IFN-γ: cytokine interferon gamma, used to induce APOL1 expression (protein, UniProt P01579 24-161, looked up)
Interferon gamma: QDPYVKEAENLKKYFNAGHSDVADNGTLFLGILKNWKEESDRKIMQSQIVSFYFKLFKNFKDDQSIQKSVETIKEDMNVKFFNSNKKKRDDFEKLTNYSVTDLNVQRKAIHELIQVMAELSPAAKTGKRKRSQMLFRG

Experiments:
[1] = tested on: SARS-CoV-2; assay: Plaque assay of supernatants from SARS-CoV-2 infected kidney organoids treated with remdesivir; format: cell-based; conditions: 2 μM remdesivir immediately after infection with SARS-CoV-2 or SARS-CoV-2-mNG; vs untreated organoids
Experimental: Mean±SEM of three independent experiments. Paired t-test, **p<0.01.
To investigate the efficacy of remdesivir, kidney organoids were infected with SARS-CoV-2 or SARS-CoV-2-mNG, and then treated with a 2 μM dose of remdesivir immediately after infection (FIG. 5A).

[2] = tested on: kidney organoids; conditions: short term, at the efficacious dose (2 μM)
[3] = tested on: COVID-19 patients; conditions: cited from earlier work
[4] = tested on: kidney organoid podocytes; assay: Time-lapse imaging of GFP-PODXL kidney organoids under prolonged treatment (podocyte integrity, organoid size); format: cell-based, human
Experimental: It was determined whether podocytes are damaged by prolonged IFN-γ treatment. As shown at FIG. 24A, an example time course for prolonged IFN-γ treatment involves regular imaging of organoids during treatment of mature organoids with IFN-γ prior to fixation. […] Further, podocyte junctional tracks appear intact with 7d IFN-γ treatment (results from confocal immunofluorescence microscopy of control versus 7d IFN-γ treatment; markers: ZO-1, Synaptopodin, ZO-1+Synaptopodin, APOL1, and DAPI). Based on these observations, it was concluded that podocytes appear largely undamaged by prolonged IFN-γ treatment.

[5] = tested on: APOL1 expression; assay: APOL1 expression in kidney organoids on agonist (IFN-γ) treatment, immunofluorescence; format: cell-based, human
Experimental: Experiments were performed to determine APOL1 localization in normal human kidney and stimulation in kidney organoids.

[6] = tested on: kidney organoid endothelial networks; assay: Endothelial networks and tubular structures of kidney organoids under prolonged IFN-γ treatment; format: cell-based, human; conditions: prolonged (7d) treatment
Description: As such, it was next determined whether JAK ½ inhibition prevents IFN-γ-induced loss of endothelial networks and disorganization of tubular structures. […] As a result, it was concluded that JAK ½ inhibition prevents IFN-γ-induced loss of endothelial networks and disorganization of tubular structures.

[7] = prolonged treatment of mature organoids

| Molecule | reduced replicated virus in supernatants (plaque assay) [1] | safety in kidney cells [2] | tolerability ([3]; AKI and CKD patients) | risk of developing AKI ([3]; remdesivir-treated patients) | organoid size [4, 7] | APOL1 agonist screen result ([5]; 24-hour screen) | saturating dose for APOL1 expression ([5]; 24 hr, fluorescent intensity of APOL1 in organoids) [ng/mL] | APOL1 expression on titration ([5]; IFN-γ titration) | effect on endothelial networks and tubular structures [6] | podocyte junctional tracks ([4]; 7d treatment, ZO-1, Synaptopodin staining) | loss of GFP-PODXL [4, 7] |
| --- | --- | --- | --- | --- | --- | --- | --- | --- | --- | --- | --- |
| CCC(CC)COC(=O)[C@H](C)N[P@](=O)(OC[C@H]1O[C@@](C#N)(c2ccc3c(N)ncnn23)[C@H](O)[C@@H]1O)Oc1ccccc1 [remdesivir] | 71.4%±18% | supports short term safety | tolerated well | increase chances of developing AKI |  |  |  |  |  |  |  |
| tunicamycin [reference compound] |  |  |  |  | shrink in size |  |  |  |  |  |  |
| B1 |  |  |  |  | no significant change | strong agonist for APOL1 expression | 100 | dose-responsive activation of APOL1 expression | pronounced loss of endothelial networks and tubular structures | appear intact | does not result in enhanced loss of GFP-PODXL |
